Biological target: T1, MBP-COP1 (Arabidopsis thaliana, UniProt P43254 1-675)
T1 sequence (looked up): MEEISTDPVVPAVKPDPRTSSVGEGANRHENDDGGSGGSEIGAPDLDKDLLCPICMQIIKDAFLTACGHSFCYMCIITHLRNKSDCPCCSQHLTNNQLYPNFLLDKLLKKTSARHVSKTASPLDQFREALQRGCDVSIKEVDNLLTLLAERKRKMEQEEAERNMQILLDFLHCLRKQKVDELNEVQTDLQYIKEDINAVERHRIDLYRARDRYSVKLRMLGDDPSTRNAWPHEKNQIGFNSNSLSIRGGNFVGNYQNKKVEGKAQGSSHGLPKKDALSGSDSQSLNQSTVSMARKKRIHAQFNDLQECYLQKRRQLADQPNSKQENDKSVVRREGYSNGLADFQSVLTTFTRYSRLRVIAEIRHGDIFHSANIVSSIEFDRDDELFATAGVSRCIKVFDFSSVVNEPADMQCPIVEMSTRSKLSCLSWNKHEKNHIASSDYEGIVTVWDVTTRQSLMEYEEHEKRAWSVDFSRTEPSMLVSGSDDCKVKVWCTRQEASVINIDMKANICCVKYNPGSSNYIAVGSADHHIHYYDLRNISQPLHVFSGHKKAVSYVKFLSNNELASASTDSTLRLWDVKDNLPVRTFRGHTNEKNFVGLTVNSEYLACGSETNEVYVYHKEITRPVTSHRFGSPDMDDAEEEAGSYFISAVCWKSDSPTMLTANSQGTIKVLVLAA
Assay: pull-down

B1: GST-HEC2 (natural protein, Arabidopsis thaliana, UniProt Q9SND4 1-231, looked up)
chain: MDNSDILMNMMMQQMEKLPEHFSNSNPNPNPHNIMMLSESNTHPFFFNPTHSHLPFDQTMPHHQPGLNFRYAPSPSSSLPEKRGGCSDNANMAAMREMIFRIAVMQPIHIDPESVKPPKRKNVRISKDPQSVAARHRRERISERIRILQRLVPGGTKMDTASMLDEAIHYVKFLKKQVQSLEEHAVVNGGGMTAVAGGALAGTVGGGYGGKGCGIMRSDHHQMLGNAQILR
  binding result: binds

From article PMC7959245 (The Plant journal : for cell and molecular biology, 2020)
